From US20070184488

Columns and labels:
[1] = target: T1, EVNFEAEF (SEQ ID NO: 260)
T1 chain: EVNFEAEF

[2] = target: T2, EVNFAAEF (SEQ ID NO: 259)
T2 chain: EVNFAAEF

[3] = target: T3, EVNFEVEF (SEQ ID NO: 262)
T3 chain: EVNFEVEF

[4] = target: T4, P1′ peptide library component with P1′=Pro
T4 chain: EVNLPAEF

[5] = target: T5, P1′ peptide library component with P1′=Gly
T5 chain: EVNLGAEF

[6] = target: T6, P1′ peptide library component with P1′=Glu
T6 chain: EVNLEAEF

[7] = target: T7, EVNLAAEF (SEQ ID NO: 258)
T7 chain: EVNLAAEF

[8] = target: T8, EVNLDAEF, Swedish mutant APP 8-mer peptide (SEQ ID NO: 257)
T8 chain: EVNLDAEF

[9] = target: T9, EVNFAVEF (SEQ ID NO: 261)
T9 chain: EVNFAVEF

B1: β-secretase (protein)
chain: ETDEEPEEPGRRGSFVEMVDNLRGKSGQGYYVEMTVGSPPQTLNILVDTGSSNFAVGAAPHPFLHRYYQRQLSSTYRDLRKGVYVPYTQGKWEGELGTDLVSIPHGPNVTVRANIAAITESDKFFINGSNWEGILGLAYAEIARPDDSLEPFFDSLVKQTHVPNLFSLQLCGAGFPLNQSEVLASVGGSMIIGGIDHSLYTGSLWYTPIRREWYYEVIIVRVEINGQDLKMDCKEYNYDKSIVDSGTTNLRLPKKVFEAAVKSIKAASSTEKFPDGFWLGEQLVCWQAGTTPWNIFPVISLYLMGEVTNQSFRITILPQQYLRPVEDVATSQDDCYKFAISQSSTGTVMGAVIMEGFYVVFDRARKRIGFAVSACHVHDEFRTAAVEGPFVTLDMEDCGYNIPQTDESTLMTIAY
[1]
  Relative rates of hydrolysis (relative to SEQ ID NO: 257): 17
[2]
  Relative rates of hydrolysis (relative to SEQ ID NO: 257): 17
[3]
  Relative rates of hydrolysis (relative to SEQ ID NO: 257): 60
[4]
  depletion of full length peptide substrate (LC/MS): two peptides that were not cleaved by β-secretase (P1′=Gly and P1′=Pro)
[5]
  depletion of full length peptide substrate (LC/MS): two peptides that were not cleaved by β-secretase (P1′=Gly and P1′=Pro)
[6]
  depletion of full length peptide substrate (LC/MS): most rapidly hydrolyzed by β-secretase (P1′=Glu and P1′=Ala)
  formation of C-terminal cleavage products (LC/MS): more rapid and comparable rates of formation of the products represented by P1′=Ala and P1′=Glu
[7]
  Relative rates of hydrolysis (relative to SEQ ID NO: 257): 10
  depletion of full length peptide substrate (LC/MS): most rapidly hydrolyzed by β-secretase (P1′=Glu and P1′=Ala)
  formation of C-terminal cleavage products (LC/MS): more rapid and comparable rates of formation of the products represented by P1′=Ala and P1′=Glu
[8]
  Relative rates of hydrolysis (relative to SEQ ID NO: 257): 1
  depletion of full length peptide substrate (LC/MS): one intermediate sequence (P1′=Asp-the residue normally present in Swedish mutant APP)
  formation of C-terminal cleavage products (LC/MS): the P1′=Asp product shows formation consistent with this residue being less conducive to β-secretase hydrolysis than either Glu or Ala
[9]
  Relative rates of hydrolysis (relative to SEQ ID NO: 257): 30
